Data on 2 molecules can be found in US20030143225A1 (Genentech, published 2003).

Test [1] deals with truncated transmembrane tissue factor comprising residues 1-243, relipidated (human) (UniProt P13726). Put plainly: cell-based or functional assay.
For test [2], the target named is relipidated human tissue factor (Innovin) (human, UniProt P13726 33-295). The experiment in a line: cell-based or functional assay.
Test [3] has as its target tissue factor on human J82 cells (human, UniProt P13726 33-295). Put plainly: cell-based or functional assay.
The target of test [4] is T1, soluble tissue factor composed of the extracellular domain residues 1-219 of hTF (human, UniProt P13726 33-251).
T1 construct: Expressed in E. coli; also called sTF
The experiment in a line: SPR (BIAcore 2000), antibody immobilized, sTF in solution, 1:1 model. Background: SPR reads the build-up and loss of mass on a sensor chip optically.
Description: The binding affinity of sTF for immobilized antibody was determined by surface plasmon resonance (SPR) measurements on a Pharmacia BIAcore 2000 instrument (Pharmacia Biosensor). Each antibody was coupled to the sensor chip surface at a level of 2000-3000 resonance units using amine coupling chemistry (Pharmacia Biosensor). In a typical experiment, 4 different antibodies were immobilized on each of the 4 flow cells of the sensor chip so that sensorgrams could be recorded simultaneously for all 4 antibodies. […] The kinetic constants were determined by non-linear regression analysis according to a 1:1 binding model using software supplied by the manufacturer. Dissociation constants were calculated from the kinetic constants. […] These solutions were incubated at ambient temperature for 30 minutes prior to injection onto the sensor chip. […] Affinities were determined by SPR measurements as described above for the wild-type protein.

truncated transmembrane tissue factor comprising residues 1-243, relipidated (human), sequence (P13726 33-275): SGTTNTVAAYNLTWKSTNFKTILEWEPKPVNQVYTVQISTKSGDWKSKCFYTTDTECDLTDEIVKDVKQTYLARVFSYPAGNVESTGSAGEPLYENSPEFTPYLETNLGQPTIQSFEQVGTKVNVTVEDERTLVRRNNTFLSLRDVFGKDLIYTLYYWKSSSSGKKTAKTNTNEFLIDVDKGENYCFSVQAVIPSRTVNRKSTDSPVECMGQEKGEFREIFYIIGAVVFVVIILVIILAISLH

In test [1], HTF1 antibody yielded a concentration that inhibited the initial rate of FX activation in human plasma by 50% of 150 µg/mL.

B1: murine anti-TF antibody 5G6 (antibody, V domains shown)
VH: EVLLQQSGPELVKPGASVKIPCKASGYTFTEYNMDWVKQSHGKSLEWIGDINPNNGNTIYNQKFKGKATLTVDKSSTTAYLELRSLTSEDTAVYFCARDHDYYFDFWGQGTTLTVSS
VL: DIQMTQTPASQSASLGESVTITCLASQTIDTWLAWYQQKPGKSPQLLIYAATSLADGVPSRFSGSGSGTKFSFKISSLQAEDFVSYYCQQPYSSPYTFGGGTKLELKR
notes: Murine monoclonal antibody purified from ascites
As for B1, the “antibody concentration that prolonged the clotting time by 1.5-fold (PT assay)” value in test [2] amounted to 27 µg/mL. Also, in test [3], the “IC50 of FPA generation, human ex-vivo blood flow system” value came out at 50 µg/mL. Moreover, in test [4], the dissociation constant (Kd) stood at 1.7 nM, the off-rate constant (koff) came out at 0.0005 s⁻¹ and the kon was determined as 300000 M⁻¹ s⁻¹.

The term Kd denotes a measure of binding affinity in units of concentration. Lower therefore signals a tighter complex. The term koff denotes a measure of how fast the partners let go of each other. The kon is the second-order rate constant of association. Read a low kon as slower complex formation.
